Laboratory results reported in article PMC6008203.

Biological target: PtmA2 (as used for analytical size-exclusion chromatography) (Streptomyces platensis CB00739)
Test: SEC

- stoichiometry N: 2
Substance: PtmA2 (as used for analytical size-exclusion chromatography) (enzyme)
